Experiment [1] addresses mouse CSL (RBPJ), core domain 53-474 53-474 (UniProt P31266). Briefly: isothermal titration calorimetry. Particulars: reference: nonphosphorylated N3RAM peptide; sites S1672.
Experiment [2] concerns the target mouse CSL (amino acid residues 53-474), conserved and structurally ordered core domain (mouse) (UniProt P31266). Briefly: ITC; CSL in the cell at 10 μM, RAM peptides in the syringe at 100 μM; 20 °C; 50 mM sodium phosphate, 150 mM sodium chloride; triplicate, 20 injections of 14 μl.

Chain of mouse CSL (amino acid residues 53-474), conserved and structurally ordered core domain (mouse) (P31266 53-474): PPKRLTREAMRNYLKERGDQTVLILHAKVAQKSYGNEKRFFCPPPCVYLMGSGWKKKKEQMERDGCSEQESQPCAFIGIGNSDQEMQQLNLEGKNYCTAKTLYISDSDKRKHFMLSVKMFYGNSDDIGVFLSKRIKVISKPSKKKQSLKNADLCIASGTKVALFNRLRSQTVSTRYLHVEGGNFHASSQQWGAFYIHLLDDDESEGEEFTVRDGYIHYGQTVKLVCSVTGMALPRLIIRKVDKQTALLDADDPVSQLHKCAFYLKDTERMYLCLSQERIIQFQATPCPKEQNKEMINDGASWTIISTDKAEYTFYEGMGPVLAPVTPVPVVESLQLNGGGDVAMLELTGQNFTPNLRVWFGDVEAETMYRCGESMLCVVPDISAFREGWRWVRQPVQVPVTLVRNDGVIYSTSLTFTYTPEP

Turning to “human NOTCH3 (N3RAM peptide) RAM domain, 1665-1682 (from UniProt Q9UM47) N3RAMpS1672 peptide”, the KD entry in experiment [1] is on record as “lost; reference 0.187”.
In turn, “human NOTCH3 RAM peptide (residues 1665-1682), nonphosphorylated” yielded a Kd in experiment [2] of 187 nM.

For the origin of these results see paper PMC8100066.
